Laboratory results taken from PMC12130793, “A conserved aspartate residue in [4Fe-4S]-containing HypD is required for [NiFe]-cofactor biosynthesis and for efficient interaction of the HypCD scaffold complex with HypE” (Metallomics: Integrated Biometal Science, 2025).

B1: HypD (native, untagged) (natural protein, E. coli, UniProt P24192 1-373, looked up)
chain: MRFVDEYRAPEQVMQLIEHLRERASHLSYTAERPLRIMEVCGGHTHAIFKFGLDQLLPENVEFIHGPGCPVCVLPMGRIDTCVEIASHPEVIFCTFGDAMRVPGKQGSLLQAKARGADVRIVYSPMDALKLAQENPTRKVVFFGLGFETTMPTTAITLQQAKARDVQNFYFFCQHITLIPTLRSLLEQPDNGIDAFLAPGHVSMVIGTDAYNFIASDFHRPLVVAGFEPLDLLQGVVMLVQQKIAAHSKVENQYRRVVPDAGNLLAQQAIADVFCVNGDSEWRGLGVIESSGVHLTPDYQRFDAEAHFRPAPQQVCDDPRARCGEVLTGKCKPHQCPLFGNTCNPQTAFGALMVSSEGACAAWYQYRQQESEA
notes: Carries a [4Fe-4S] cluster; also called native HypD; WT HypD; source: E. coli BL21(DE3), co-expressed with HypC-Strep (phypDC) or with HypE, HypF and HybG-Strep (phypDEF-hybG); co-purified anaerobically
B2: HypC bearing a C-terminal StrepII-tag (natural protein, E. coli, UniProt P0AAM3 1-90, looked up)
chain: MCIGVPGQIRTIDGNQAKVDVCGIQRDVDLTLVGSCDENGQPRVGQWVLVHVGFAMSVINEAEARDTLDALQNMFDVEPDVGALLYGEEK
notes: HypC, hydrogenase maturation factor of E. coli; native HypC; also called HypC-Strep; Strep-tagged HypC; source: E. coli BL21(DE3) transformed with phypDC or phypD_(D98A)hypC, purified anaerobically (Strep tag); not shown: StrepII, C-terminal, kept
B3: HypD_(D98A) (untagged) (natural protein, E. coli, UniProt P24192 1-373, looked up)
chain: MRFVDEYRAPEQVMQLIEHLRERASHLSYTAERPLRIMEVCGGHTHAIFKFGLDQLLPENVEFIHGPGCPVCVLPMGRIDTCVEIASHPEVIFCTFGAAMRVPGKQGSLLQAKARGADVRIVYSPMDALKLAQENPTRKVVFFGLGFETTMPTTAITLQQAKARDVQNFYFFCQHITLIPTLRSLLEQPDNGIDAFLAPGHVSMVIGTDAYNFIASDFHRPLVVAGFEPLDLLQGVVMLVQQKIAAHSKVENQYRRVVPDAGNLLAQQAIADVFCVNGDSEWRGLGVIESSGVHLTPDYQRFDAEAHFRPAPQQVCDDPRARCGEVLTGKCKPHQCPLFGNTCNPQTAFGALMVSSEGACAAWYQYRQQESEA
notes: HypD of E. coli with the D98A exchange, without a tag; source: co-purified anaerobically

Experiments:
[1] = biological target: B2; experiment: native MS; anaerobically purified HypC-Strep/HypD complexes buffer-exchanged into 500 mM ammonium acetate, pH 6.8, about 10 uM; nano-ESI Q-TOF; MS/MS with collision-induced dissociation (90 V) of the +12 charge state of the heterodimer; conditions: both partners purified
HypD (native, untagged) = biological target: B1; experiment: pull-down; co-purification from BL21(DE3) cells by the StrepII tag (on HypD, HypC or HybG) under anoxic conditions; 5 ug of isolated protein on SDS-PAGE, immunoblot with anti-HypD or anti-HypE antiserum (1:1000); conditions: partners not purified
HypD_(D98A) (untagged) = biological target: B3; experiment: as above; conditions: partners not purified

Binder | stoichiometry N [1] | binding result (HypD (native, untagged)) | binding result (HypD_(D98A) (untagged))
B1 | 1 ratio HypC:HypD | – | –
B2 | – | binds | binds
B3 | 1 ratio HypC:HypD | – | –
